This is an account of results in patent US9422349.

The target of this experiment is GLP-1 receptor on RIN-m5F rat insulinoma cells (rat) (UniProt P32301). Description: cell-based or functional assay.
Chain of UniProt P32301 (P32301 22-463): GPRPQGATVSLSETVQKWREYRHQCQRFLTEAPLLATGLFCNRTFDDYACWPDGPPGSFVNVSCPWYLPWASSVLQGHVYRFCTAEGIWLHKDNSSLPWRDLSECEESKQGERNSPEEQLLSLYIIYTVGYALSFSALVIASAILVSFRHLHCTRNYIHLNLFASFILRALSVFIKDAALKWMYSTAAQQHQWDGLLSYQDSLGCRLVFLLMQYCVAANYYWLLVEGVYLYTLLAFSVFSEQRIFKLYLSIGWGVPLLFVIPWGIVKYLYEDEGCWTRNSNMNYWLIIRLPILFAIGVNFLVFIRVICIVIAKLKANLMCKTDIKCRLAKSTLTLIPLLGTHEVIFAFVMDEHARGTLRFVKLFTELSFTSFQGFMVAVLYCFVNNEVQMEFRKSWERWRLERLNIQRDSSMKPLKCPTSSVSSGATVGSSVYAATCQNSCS

With “desamino-histidyl-exendin-4 (from UniProt P26349 48-86) (peptide)”, the cAMP production in RIN-m5F cells, EC50 worked out at 0.95 nM and the cAMP production in RIN-m5F cells, ratio vs Exendin4 (ratio vs Exendin4) came to 127.

Consider “imidazoacetyl-exendin-4 (from UniProt P26349 48-86) (peptide)”, for which the cAMP production in RIN-m5F cells, EC50 turned out to be 1.2 nM and the cAMP production in RIN-m5F cells, ratio vs Exendin4 (ratio vs Exendin4) came out at 100.
